Measurements from US20110263014A1, “Cleavage of Nanog by Caspases Mediates the Differentiation of Embryonic Stem Cells” (BAYLOR COLLEGE OF MEDICINE, priority 2008, published 2011).

Experiments:
[1] = molecular target: T1, caspase-9 (Homo sapiens, UniProt P55211); assay: cleavage of immunoprecipitated mNanog by recombinant caspase-9; format: biochemical; details: protein immunoprecipitated from ES cells
T1 sequence (P55211 1-416): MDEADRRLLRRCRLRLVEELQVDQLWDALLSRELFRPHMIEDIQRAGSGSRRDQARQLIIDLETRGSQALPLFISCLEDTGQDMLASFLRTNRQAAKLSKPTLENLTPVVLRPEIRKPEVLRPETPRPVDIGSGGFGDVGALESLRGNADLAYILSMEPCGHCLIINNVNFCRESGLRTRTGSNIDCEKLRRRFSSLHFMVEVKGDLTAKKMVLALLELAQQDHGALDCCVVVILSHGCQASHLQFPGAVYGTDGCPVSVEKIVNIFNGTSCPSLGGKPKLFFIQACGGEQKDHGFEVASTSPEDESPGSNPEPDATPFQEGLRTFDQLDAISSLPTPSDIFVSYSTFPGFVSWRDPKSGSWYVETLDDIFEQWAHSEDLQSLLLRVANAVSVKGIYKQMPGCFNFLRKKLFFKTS

[2] = system: mouse ES cells; assay: colony formation at clonal density, alkaline phosphatase staining; format: cell-based; details: transfected mouse ES cells, 5000 cells/cm^2, with or without LIF, 3 days

cleavage by caspase-9 [1]: greatly diminished cleavage
B1: D67G mNanog: caspase cleavage-resistant mutant of mouse Nanog, mutation at position 67 (protein)
chain: MSVGLPGPHSLPSSEEASNSGNASSMPAVFHPENYSCLQGSATEMLCTEAASPRPSSEDLPLQGSPGSSTSPKQKLSSPEADKGPEEEENKVLARKQKMRTVFSQAQLCALKDRFQKQKYLSLQQMQELSSILNLSYKQVKTWFQNQRMKCKRWQKNQWLKTSNGLIQKGSAPVEYPSIHCSYPQGYLVNASGSLSMWGSQTWTNPTWSSQTWTNPTWNNQTWTNPTWSSQAWTAQSWNGQPWNAAPLHNFGEDFLQPYVQLQQNFSASDLEVNLEATRESHAHFSTPQALELFLNYSVTPPGEI
number of undifferentiated (AP-positive) colonies [2]: substantially increased
